Publication PMC9662066 (Emerging Microbes & Infections, 2022)

B1: BD-667 (antibody, V domains shown)
VH: QVQLVESGGGLVKPGGSLRLSCAASGFRFSDYYMNWIRQAPGKGLEWISYIGSGGFATYYGDSVKGRFTVSRDDAENSLYLQMNSLRAEDTAVYYCARGVTSYSDNSGNYRTDDAFDIWGQGTMVTVSS
VL: EIVMTQSPATLSVSPGERATLSCRASQSVSRNLAWYQQRPGQAPRLLIYGASTRATGVAARFTGSGFGTEFTLTISGLQSEDFAVYYCQEYNNWPPWTFGQGTKVEIK
notes: IgG1; IGHV3-11
B2: C548 (antibody, V domains shown)
VH: QVQLVQSGAEVKKPGSSVKVSCKASGGTFSSYAISWVRQAPGQGLEWMGGIIPIFGTANYAQKFQGRVTITADESTSTAYMELSSLRSEDTAVYYCARREAYGPRDYYYYYGMDVWGQGTTVTVSS
VL: QSALTQPPSASASLGASVTLTCTLSSGYSNYKVDWYQQRPGKGPRFVMRVGTGGIVGSKGDGIPDRFSVLGSGLNRYLTIKNIQEEDESDYHCGADQGSGSNFVGVFGGGTKLTVG
notes: IgG1; IGHV1-69-encoded
B3: nCoV617 (antibody, V domains shown)
VH: QVQLVESGGGVVQPGRSLRLSCAASGFTFSSYAMHWVRQAPGKGLEWVALISYDGSNKYADSVKGRFTISRDNSKNTLYLQMNSLRAEDTAVYYCARGLGLRFLEWPISSYWGQGTLVTVSS
VL: not shown
notes: IgG1; IGHV3-30
B4: 2-15 (antibody, V domains shown)
VH: QVQLVQSGAEVKKPGASVRVSCKASGYTFTGYYMHWVRQAPGQGLEWMGWINPISDGTNYAQKFQGWVTMTRDTSISTVYMELSRLRSDDTAVYYCARGGSRCSGGNCYGWAYDAFDIWGQGTMITVSS
VL: QSALTQPASVSGSPGQSITISCTGTSSDVGGYNFVSWYQQHPGKAPKLMIYDVSKRPSGVSNRFSGSKSGNTASLTISGLQAEDEADCYCSSYTSSSTFVFGTGTKVTVL
notes: IgG1; IGHV1-2
B5: CV07-270 (antibody, V domains shown)
VH: QVQLVESGGGLVKPGGSLRLSCAASGFTFSDYYMTWIRQAPGKGLEWVSYISSSGSTIYYADSVKGRFTISRDNAKNSLYLQMNSLRAEDTAVYYCARARGSSGWYRIGTRWGNWFDPWGQGTLVTVSS
VL: QSALTQPASVSGSPGQSITISCTGTSSDVGGYNYVSWYQQHPGKAPKLMIYEVSNRPSGVSNRFSGSKSGNTASLTISGLQAEDEADYYCSSYTSSSNVVFGGGTMLTVL
B6: A19-61.1 (antibody, V domains shown)
VH: QVQLVESGGGVVQPGRSLRLSCAASGFTFSSYAFHWVRQAPGKGLEWVAVISYDGSNQYYADSVKGRFTISRDNSKNTLYLQMNSLRADDTAVYYCARDLAIAVAGTWHYYNGMDVWGQGTTVTVSS
VL: DIQMTQSPSSVSASVGDRVIITCRASQGISSWLAWYQQKPGKAPKVLIYDASSLQSGVPSRFSGSGYGTDFTLTISSLQPEDSATYYCQQAKSFPITFGQGTRLEIK
notes: IgG1; IGHV3-30
B7: LY-CoV555 (antibody, V domains shown)
VH: QVQLVQSGAEVKKPGSSVKVSCKASGGTFSNYAISWVRQAPGQGLEWMGRIIPILGIANYAQKFQGRVTITADKSTSTAYMELSSLRSEDTAVYYCARGYYEARHYYYYYAMDVWGQGTAVTVSS
VL: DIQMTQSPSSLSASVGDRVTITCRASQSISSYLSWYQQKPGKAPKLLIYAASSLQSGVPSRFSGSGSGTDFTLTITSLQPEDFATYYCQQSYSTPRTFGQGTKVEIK
B8: FC08 (antibody, V domains shown)
VH: QLLQQSGAEVKKPGSSVKVSCKASGGTFSSYAISWVRQAPGQGLEWMGGIIPIIGIANYAQKFQGRVTITADKSTSTAYMELSSLRSEDTAVYYCARERGYSGYGAAYYFDYWGQGTLVTVSS
VL: SVLTQPPSVSGAPGQRVTISCTGSSSNIGAGYDVHWYQQLPGTAPKLLIYGNSNRPSGVPDRFSGSKSGTSASLAITGLQAEDEADYYCQSYDSSLSGSVFGGGTKLTVL
B9: R1-32 (antibody, V domains shown)
VH: EVQLVESGAEVKKPGSSVKVSCKASGGTFSSYAISWVRQAPGQGLEWMGGIIPILGIANYAQKFQGRVTITADKSTSTAYMELSSLRSEDTAVYYCARENGYSGYGAAANFDLWGRGTLVTVSS
VL: QSVLTQPPSVSGAPGQRVTISCTGSSSNIGAGYDVHWYQQLPGTAPKLLIYGNSNRPSGVPDRFSGSKSGTSASLAITGLQAEDEADYYCQSYDSSLSGSVFGGGTKLTVL
B10: MW01 (antibody, V domains shown)
VH: EVQLVQSGAEVKKPGSSVKVSCKASGGTFSSFSISWVRQAPGQGLEWMGRIIPVLGIANYAQEVQGRVTITADKSTSTAYMELSSLRSEDTAVYFCTTDRFVEPATGPFFDYWGQGTLVTVSS
VL: EIVMTQSPATLSVSPGERATLSCRASQSVSSNLAWYQQKPGQAPRLLIYGASTRATGIPARFSGSGSGTEFTLTISSLQSEDFAVYYCQQYSNWLTFGGGTKVEIK

Molecular target: T1, SARS-CoV-2 WT-RBD (SARS-CoV-2, UniProt P0DTC2)
T1 construct: not shown: 6-His, C-terminal, kept
Experiment: BLI
Details: both partners purified

Does B1 bind?
Result: binds

Does B2 bind?
Result: binds

Does B3 bind?
Result: binds

Does B4 bind?
Result: binds

Does B5 bind?
Result: binds

Does B6 bind?
Result: binds

Molecular target: T1, SARS-CoV-2 WT-RBD
Experiment: ELISA
Details: both partners purified

Does B7 bind?
Result: binds

Does B8 bind?
Result: binds

Does B9 bind?
Result: binds

Does B10 bind?
Result: binds
